Data published in patent publication US20060024786A1, “WASP and N-WASP constructs and methods of expressing such constructs” (Cytokinetics, Inc., priority 2004, published 2006).
“Also recorded” adds a separate entry of the source. Blank lines part the entries; values can stand above or below the substance they belong to.

Columns and labels:
[1] = target: T1, Arp2/3 complex; experiment: Arp2/3-mediated actin polymerization stimulated by WASP/N-WASP proteins; format: biochemical, human
T1 construct: prepared from an Arp2/3 source such as human platelets; from tissue; host or cells: cell extract, e.g. human platelets
Procedure: (§1) Samples containing candidate agents (individually or as mixtures) are placed into wells on a multi-well plate. Mix 1 is added to each of the wells and mixed with the candidate agent. A sample of Mix 2 is then introduced into each well and the resulting mixture thoroughly mixed. Typically, Mix 1 and Mix 2 are mixed in 1:1 ratio (e.g., 50 μl each of Mix 1 and Mix 2).
(§2) Actin polymerization is measured as a function of time by exciting pyrene at 365 nm and by detecting an increase in fluorescence emission at 407 nm. The change in fluorescence over time is utilized to determine a fluorescence parameter (e.g., maximal velocity, time to half maximal fluorescence intensity or area under the curve of a plot of fluorescence versus time).
In a second set of experiments, the ability of various truncated forms of WASP were compared to the activity of the full-length protein. The polymerization assays were conducted in the presence of 500 nM Cdc42, 2.5 nm purified Arp2/3 complex and 3.5 μM actin. FL-WASP, 105 WASP and the VCA (see Example 7) domain were tested. The results of these trials were plotted to obtain EC50 values. The results are provided in FIG. 6 and in the chart below.

[2] = Solubility of purified full-length protein; format: physicochemical; conditions: expressed in 293 cells, TAP-tag purification
[3] = target: T2, full length human WASP (Homo sapiens, UniProt P42768); experiment: Pyrene-actin polymerization assay: activation of full length WASP by upstream regulators; format: biochemical; conditions: for activation of FL WASP: Arp2/3 complex 4.0 nM, actin 3.5 μM
T2 construct: ProtA (part of TAP tag, behind the tev site) (C, cleaved yes); made in house; host or cells: human 293 cells (Freestyle 293 expression system)
T2 sequence (P42768 whole entry, added parts left off): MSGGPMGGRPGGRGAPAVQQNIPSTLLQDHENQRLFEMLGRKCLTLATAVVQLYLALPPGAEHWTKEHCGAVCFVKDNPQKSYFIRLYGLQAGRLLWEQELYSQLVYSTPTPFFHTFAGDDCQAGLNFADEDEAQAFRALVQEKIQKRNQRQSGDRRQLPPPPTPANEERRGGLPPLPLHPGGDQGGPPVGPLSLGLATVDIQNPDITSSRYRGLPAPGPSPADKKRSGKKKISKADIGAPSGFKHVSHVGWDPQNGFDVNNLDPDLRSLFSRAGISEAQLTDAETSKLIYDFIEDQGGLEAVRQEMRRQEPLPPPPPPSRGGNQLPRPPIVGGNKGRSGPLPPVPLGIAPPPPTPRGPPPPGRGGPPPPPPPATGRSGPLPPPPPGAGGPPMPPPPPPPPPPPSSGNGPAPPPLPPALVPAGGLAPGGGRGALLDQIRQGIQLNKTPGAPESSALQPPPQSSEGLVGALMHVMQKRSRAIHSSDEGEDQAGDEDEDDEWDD
Procedure: as §1, §2
Full length WASP was prepared as described in Example 1. This protein was then used as a substitute GST-105WASP in methods that were otherwise identical to the methods described in Example 7.
(§3) Full length human WASP and N-WASP were TAP-tagged (Rigaut, et al. (1999) Nat. Biotechnology 17:1030, which is incorporated herein by reference in its entirety for all purposes) at the C-terminus (see, also Examples 1 and 2). The recombinant WASP and N-WASP were expressed in human 293 cells and then purified using a TAP-tag protocol as described in Example 5.
The Arp2/3 complex in these experiments was 4.0 nM and the actin concentration 3.5 μM.
The effect of PIP2on the ability of upstream regulators to regulate FL WASP was evaluated in a fifth set of experiments. The results are depicted in graphical format in FIG. 9.

[4] = target: T2, full length human WASP; experiment: as above; format: biochemical; conditions: total concentration of Arp2/3 complex in the assay 4.2 nM
[5] = target: T3, full length human N-WASP (Homo sapiens, UniProt O00401); experiment: Pyrene-actin polymerization assay: activation of full length N-WASP by upstream regulators; format: biochemical; conditions: for Barbed ends: total concentration of Arp2/3 complex in the assay 4.2 nM; for activation of FL N-WASP: Arp2/3 complex 4.0 nM, actin 3.5 μM
T3 construct: ProtA (part of TAP tag, behind the tev site) (C, cleaved yes); made in house; host or cells: human 293 cells; cDNA amplified from HeLa total RNA
T3 sequence (O00401 with tags, fused parts or gaps Y76H/A201G/F223S/S242L/D248E/S252L/N296S/A333E): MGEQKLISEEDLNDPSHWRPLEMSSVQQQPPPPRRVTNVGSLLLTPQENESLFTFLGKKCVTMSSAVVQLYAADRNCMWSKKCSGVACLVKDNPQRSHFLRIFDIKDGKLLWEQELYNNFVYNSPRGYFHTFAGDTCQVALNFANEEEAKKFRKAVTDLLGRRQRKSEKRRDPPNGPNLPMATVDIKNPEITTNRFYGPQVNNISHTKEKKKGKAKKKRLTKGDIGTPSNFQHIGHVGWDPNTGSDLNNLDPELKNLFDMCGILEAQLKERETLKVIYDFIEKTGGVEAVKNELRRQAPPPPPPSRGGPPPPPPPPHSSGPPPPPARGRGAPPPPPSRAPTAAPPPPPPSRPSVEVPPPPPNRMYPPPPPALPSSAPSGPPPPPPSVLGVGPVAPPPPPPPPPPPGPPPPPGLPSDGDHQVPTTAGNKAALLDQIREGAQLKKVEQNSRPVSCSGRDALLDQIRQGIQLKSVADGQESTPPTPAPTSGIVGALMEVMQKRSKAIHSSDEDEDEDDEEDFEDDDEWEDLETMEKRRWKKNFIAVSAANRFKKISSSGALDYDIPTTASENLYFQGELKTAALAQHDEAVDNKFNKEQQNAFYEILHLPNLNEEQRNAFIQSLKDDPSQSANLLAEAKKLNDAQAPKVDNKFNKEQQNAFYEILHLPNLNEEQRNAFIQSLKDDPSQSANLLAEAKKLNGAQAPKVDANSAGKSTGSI
Procedure: as §1, §2
Full length N-WASP was prepared as described in Example 2. This protein was then used as a substitute GST-105 WASP in methods that were otherwise identical to the methods described in Example 7.
as §3
Arp2/3 and actin concentrations were as described for the third experiment.
Another set of experiments similar to the fifth set were conducted using FL N-WASP.

[6] = 500 nM Cdc42, 2.5 nm Arp2/3 complex, 3.5 μM actin, from EC50 values

Substance: FL-WASP: full-length Wiskott-Aldrich syndrome protein, SEQ ID NO:2; expressed TAP-tagged in human 293 cells
- activity relative to 105 WASP [1, 6]: approximately 20 times
- potency relative to the VCA/WA domain [1, 6]: more than 70 times
- stimulation of actin polymerization by the protein by itself ([1]; without upstream regulators, FIG. 5): only weakly stimulate actin polymerization
- solubility of purified protein [2]: completely soluble

Substance: Nck2: upstream regulator; GST-tagged NCK2, SEQ ID NO:40
- dose dependence of barbed end concentration / effect at higher concentrations ([3]; FL WASP, FIG. 7): bell shaped dependence; also recorded: inhibited
- Barbed ends % of max. ([3]; WASP, after subtracting baseline (WASP without activators)): 50%
- Barbed ends [4]: 2.6 nM
- activation of FL N-WASP ([5]; FIG. 8): only activators tested that can stimulate production of maximal concentration of barbed ends
- dose dependence of barbed end concentration / effect at higher concentrations ([5]; FL N-WASP, FIG. 8): bell shaped dose dependence; also recorded: inhibited
- Barbed ends % of max. ([5]; N-WASP, after subtracting baseline (without activators)): 78%
- Barbed ends ([5]; N-WASP): 3.5 nM
- comparison as N-WASP activator ([5]; Rac1 versus Cdc42 in the absence of PIP2 vesicles, Nck2 on N-WASP versus WASP, FIG. 8): significantly better activator of N-WASP than WASP

Substance: RhoA: GTPase; GST-tagged RhoA GTP, SEQ ID NO:30
- activation of FL WASP ([3]; FIG. 7): could not activate
- activation of FL N-WASP ([5]; FIG. 8): could not activate

Second part, led by results:

- acceleration of actin polymerization by activator ([3]; FL-WASP plus activator versus FL-WASP alone, FIG. 5): 13 fold
- Barbed ends [4]: 3.8 nM
- acceleration of actin polymerization by activator ([5]; N-WASP plus activator versus N-WASP alone, FIG. 5): 13 fold
- Barbed ends ([5]; N-WASP): 1.3 nM
Substance: Cdc42: Rho-family GTPase, upstream regulator; GST-tagged Cdc42 GTP with G12 mutated to V, SEQ ID NO:26
- activation of FL WASP ([3]; FIG. 7): can fully activate FL WASP; also recorded: more effective on WASP-stimulated actin nucleation by Arp2/3 complex than on N-WASP-stimulated actin nucleation

- activation of FL WASP ([3]; FIG. 7): could not activate
- activation of FL N-WASP ([5]; FIG. 8): could not activate
Substance: RhoC: GTPase; GST-tagged RhoC GTP with G14 mutated to V, SEQ ID NO:28

- effect of PIP2 on FL WASP ([3]; in the absence of small GTPases or Nck, FIG. 9): minimal, if any, effect
Substance: phosphatidylinositol-4,5-bisphosphate [PIP2, reference compound]
